Measured values taken from the supplement of paper PMC9170038.

Assays:
MS2 coat protein = assay: apparent KD of MS2 coat protein; designed switch direction (-1 OFF switch, 1 ON switch): 1; higher = weaker reporter binding
How it was run: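 An oligonucleotide input, 200 uM small-molecule ligand, or no input was present during titration of SNAP-549-labelled MS2 coat protein, which was doubled from 0.7 or 1.5 nM to 3 µM. Designed RNA switches had been transcribed on Illumina chips by stalled E. coli RNA polymerase. Apparent KD per design is the median over clusters of curves fitted to normalised cluster fluorescence.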

[1] = system: K4 kissing-loop RNA reporter; assay: apparent KD of K4 kissing-loop reporter; higher = weaker reporter binding; details: Eterna round: R107;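 note: bound reporter read as fluorescence of individual clusters on recovered sequencing chips by microscopy, with normalized cluster intensities fitted with a binding model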
Experimental: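 RNA-MaP round R107: designed RNA switches with theophylline, tryptophan, arginine or FMN aptamers are transcribed on-chip within common flanks. They are titrated with a labelled K4 kissing-loop RNA reporter in RNA-MaP buffer (100 mM Tris pH 7.5, 80 mM KCl, 4 mM MgCl2), without ligand or with the indicated ligand. Median apparent KD per design.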

[2] = input ligand: microRNA oligo, concentration not stated
[3] = input ligand: theophylline 20 uM
[4] = input ligand: tryptophan 2.4 mM

Sequence | apparent KD of MS2 coat protein (MS2 coat protein; input ligand: FMN 200 uM) [nM] | apparent KD of MS2 coat protein (MS2 coat protein; [2]) [nM] | apparent KD of MS2 coat protein (MS2 coat protein; input ligand: none) [nM] | apparent KD of MS2 coat protein (MS2 coat protein; Eterna round: R95, input ligand: microRNA oligo, concentration not stated) [nM] | apparent KD of K4 kissing-loop reporter ([1]; input ligand: FMN 200 uM) [nM] | apparent KD of K4 kissing-loop reporter ([1]; input ligand: arginine 13.2 mM) [nM] | apparent KD of K4 kissing-loop reporter ([1]; input ligand: none) [nM] | apparent KD of K4 kissing-loop reporter [1, 3] [nM] | apparent KD of K4 kissing-loop reporter [1, 4] [nM]
AAAAAACAUGAGGAUCACCCAUGUCAAAAGACAUGAGGAUAUGUACAGACUUCGGUCUGUACAGAAGGCAUGUAAA [SS1 - 1015] (Eterna round: R96, puzzle: Same State 1) | 28.9 | 241 | 319 | – | – | – | – | – | –
AAAAGAAACACAGGAUAUACCGCACUUAACGCGGUAGAAGGGUGGGACAUGAGGAUCACCCAUGUGGCCUAAGCGCCAGGCCGC [Tibiorvela] (Eterna round: R96, puzzle: Same State NG 1) | 3890 | 13.1 | 211 | – | – | – | – | – | –
AAAAUGGUAUGUUACAUGAGGAUCACCCAUGUACCGUCAUCUGAGGAUAUGGUGAUGUAGAAGAAUCAGAAGGCAGACAUUUAA [AK SSNG3-V2-25] (Eterna round: R96, puzzle: Same State NG 3) | 17.3 | 20 | 34.1 | – | – | – | – | – | –
AAACAUGAGCGAGGAUAUGCGGAGGAUCACCCUGUAGAAGGCGCAUGUAAAACAACAUGAGGAUCACCCAUGUCAUGUACAUAA (Eterna round: R96, puzzle: Same State NG 1) | 77.5 | 144 | 223 | – | – | – | – | – | –
AAACAUGAGCGAGGAUAUGCGGAGGAUUACCCUGUAGAAGGCGCAUGUAAAACAACAUGAGGAUCACCCAUGUCAUGUACAUGU (Eterna round: R96, puzzle: Same State NG 1) | 168 | 115 | 226 | – | – | – | – | – | –
AAACCACAUGAGGAUCACCCAUGUGAUAAAAGCAUAGGAUAUCUGGAUGUGAGAGGCGGCAGAGAAGGAUGCACGC [Laoror] (puzzle: Same State 1) | – | – | – | 58.2 | – | – | – | – | –
AAACGGCCGAACGGAGGGCCACAUGAGGAUCACCCAUGUACAUAGGAUAUCACACCAACGAGGCGUGAGAAGGGUGAUUAAAAC [Teisedbe] (Eterna round: R96, puzzle: Same State NG 3) | 176 | 52.1 | 1110 | – | – | – | – | – | –
UGUCAUUGGUCUGAUACCAGUUGAUGACGAAUACGUCAACUGGAGUGAUGUUCCAAUAACAACCCUUGGCAGCAGACCGAUGACU [MAT - Same State Theophlline B - Mod of Eli - D3] | – | – | – | – | 557 | 494 | 530 | 953 | 563
UGUCUACCGGGAAGGAGCGUGAAUGAUAAUGGAUAUAGUGAUGUUAUAUAUACGAACGAAUCGCAGGUAGGUCGCCCGGAUCCCU [SSArgB.W] | – | – | – | – | 431 | 419 | 606 | 431 | 481
UGUGUACCGGGAAGGAGCGUGAAUGAGAAUGGAUAUAGUGAUGUUAUGUAUACGAACGAAUCGCAGGUAGGUCGCCCGGAUCCCU [SSArgB.Z] | – | – | – | – | 513 | 320 | 677 | 396 | 461
UGUUACCAGUGAUGUUGGGAGAUGAAGAGCAAGGAUAUGUGAUAGUACAGAAGGUGCGUCGUCGUGAUUAUCACGCUCUGUGUUA [theeternabot_exclusion_KL_FMN_A_8] | – | – | – | – | 266 | 98.3 | 141 | 138 | 111
UGUUAUGUAUCAGGAUAUUAGUGAUGUUUGUUGAUGUUAGUGAUGUUGAUAUUUGUUUUAUGUAUUUAAGAAGGGAUUGAGAUGU [ooilmullin] | – | – | – | – | 53.9 | 19.2 | 38.7 | 27.8 | 41.4
UGUUUUUACUGAAGGAGCGGCAAUUGAUACGUAGAUAUAGUGAUGUUAUAUAAGAUAGAGAGCCAGGUAGGUCGCAGAAUGUAUC [ExArgB.aC] | – | – | – | – | 214 | 212 | 237 | 252 | 231
UUAAUUAAGACGGCCGCCACUGAAUUAGAGUGAUGUUCUAAAAUUACUAAAUUAAAUUUAUUCAACAGGACCGGGUCAAUUAUUA [JR_SSTryptoB_Sub009] | – | – | – | – | 516 | 435 | 560 | 527 | 524
UUAGAGAUCUCAGGAUAUGAGUGAUGUUGAUAUCAAGAUCUGAGAUAGAAUUCUAUCUCAGAUCAAUCAGAAGGGAGAUCUCAUU [AK1.3 Exc FMN B] | – | – | – | – | 172 | 109 | 194 | 411 | 263
UUAGGAGAGGGAAGGAGCGUGAAAGAGAAAGAAUAUAGUGAUGUUAUAUAGAAGAAAGAAUCACAGGUAGGUCGCCCGGAGGAGG [SSArgB.C] | – | – | – | – | 672 | 520 | 632 | 225 | 518
UUAGGAGUGGGAGGAUAUCCUAAUAUGGGUGAUGUUAGCGAUGUUGAAAGUGUAGUGAUGUUGUGCGGAGAAGGUCCAGUGUUGA [BDazzled - #13 - Exc. FMN B] | – | – | – | – | 196 | 126 | 178 | 222 | 161
UUAUAUAUAUCAGAUACCAGCAUAAUGGAAACAAAUUAUGUUAUGAGUGAUGUUCAUGUAUGCCCUUGGCAGCUGGUAUGGGUUU [KL-XTheo-B19] | – | – | – | – | 467 | 412 | 433 | 487 | 363
UUAUAUAUAUCAGAUACCAGUAUAAUGGAAACAAAUUAUGUUAUGAGUGAUGUUCAUGUAUGCCCUUGGCAGCUGGUAUGGGUUU [KL-XTheo-B20] | – | – | – | – | 356 | 322 | 362 | 439 | 311
UUAUCUAUAUUCGAUACCAGUACCCUUUGUGUUAAUCCUUUUAUCAGUGAUGUUGAUGUGUACCCUUGGCAGCGGGUAUGGGUUU [KL-XTheo-B15] | – | – | – | – | 420 | 388 | 437 | 640 | 349
UUCGAAAGUCGAAGGAGCGCUGUCGGUCAUAGACCAUAUCUGUAGUGAUGUUACAGAUGACAGCAGGUAGGUCGCGACAGAGACA [Arg B SS t18] | – | – | – | – | 148 | 120 | 127 | 144 | 144
